Measurements published in patent publication US20230270823A1 (WUXI BIOLOGICS IRELAND, published 2023).
Substitutions are numbered along the chain they refer to. Blank lines part the entries; values can stand above or below the binder they belong to.

Key:
[1] = target: IL-15Rβ/γ chain (IL-2Rβ and common gamma chain) on cyno CD8+ T cells and NK cells (cynomolgus monkey); assay: cell-based or functional assay
[2] = target: T1, IL-15Rβ/γ chain (IL-2Rβ and common gamma chain) on human CD8+ T cells and NK cells (human, UniProt P14784 27-551; P31785 23-369); assay: cell-based or functional assay
T1 sequence (looked up) 1: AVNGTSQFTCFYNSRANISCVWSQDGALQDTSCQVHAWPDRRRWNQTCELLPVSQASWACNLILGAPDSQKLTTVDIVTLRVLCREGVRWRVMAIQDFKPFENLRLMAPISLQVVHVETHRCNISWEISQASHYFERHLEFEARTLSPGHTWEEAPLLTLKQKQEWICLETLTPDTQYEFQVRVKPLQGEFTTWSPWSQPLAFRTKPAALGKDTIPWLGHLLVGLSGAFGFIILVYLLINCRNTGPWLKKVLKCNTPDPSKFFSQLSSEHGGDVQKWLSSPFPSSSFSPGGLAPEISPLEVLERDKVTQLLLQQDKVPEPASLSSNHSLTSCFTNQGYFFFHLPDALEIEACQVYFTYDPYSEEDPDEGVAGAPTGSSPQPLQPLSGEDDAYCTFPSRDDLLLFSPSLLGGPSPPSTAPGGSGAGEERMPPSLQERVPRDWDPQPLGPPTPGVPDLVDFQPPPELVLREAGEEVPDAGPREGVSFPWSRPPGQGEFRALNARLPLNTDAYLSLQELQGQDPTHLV
T1 sequence (looked up) 2: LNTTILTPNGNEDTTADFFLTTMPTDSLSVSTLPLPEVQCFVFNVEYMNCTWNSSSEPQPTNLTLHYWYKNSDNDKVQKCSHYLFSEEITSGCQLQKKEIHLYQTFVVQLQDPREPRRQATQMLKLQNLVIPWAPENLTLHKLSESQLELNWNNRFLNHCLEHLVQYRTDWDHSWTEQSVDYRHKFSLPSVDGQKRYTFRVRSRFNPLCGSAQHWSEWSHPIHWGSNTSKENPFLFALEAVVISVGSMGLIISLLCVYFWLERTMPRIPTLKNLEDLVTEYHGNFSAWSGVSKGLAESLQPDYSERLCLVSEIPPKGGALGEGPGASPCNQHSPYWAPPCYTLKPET

B1: W327151-TXU1.P1-V0001.uIgG1v805 (Fc fusion)
chain 1: NWVNVISADLKKIEDLIQSMHIDATLYTESDVHPSCKVTAMKCFLLELQVISLESGDASIHDTVENLIILANNSLSSNGNVTESGCKECEELEEKNIKEFLQSFVHIVQMFINTSGGGGSEPKSSDKTHTCPPCPAPELLRGPSVFLFPPKPKDTLYITREPEVTCVVVDVSHEDPEVKFNWYVDGVEVHNAKTKPREEQYNSTYRVVSVLTVLHQDWLNGKEYKCKVSNKARPAPIEKTISKAKGQPREPQVYTLPPCREEMTKNQVSLWCLVKGFYPSDIAVEWESNGQPENNYKTTPPVLDSDGSFFLYSKLTVDKSRWQQGNVFSCSVMHEALHNHYTQKSLSLSPG
chain 2: ITCPPPMSVEHADIWVKSYSLYSRERYICNSGFKRKAGTSSLTECVLNKATNVAHWTTPSLKCIRGGGGSEPKSSDKTHTCPPCPAPELLRGPSVFLFPPKPKDTLYITREPEVTCVVVDVSHEDPEVKFNWYVDGVEVHNAKTKPREEQYNSTYRVVSVLTVLHQDWLNGKEYKCKVSNKARPAPIEKTISKAKGQPREPQVCTLPPSREEMTKNQVSLSCAVKGFYPSDIAVEWESNGQPENNYKTTPPVLDSDGSFFLVSKLTVDKSRWQQGNVFSCSVMHEALHNHYTQKSLSLSPG
- EC50, % Ki67 expression, cyno donor 1 CD8+ T cells [1]: 29.2 nM
- EC50, % Ki67 expression, cyno donor 1 NK cells [1]: 65.6 nM
- Fold reduced (EC50, % Ki67), cyno donor 1 CD8+ T cells [1]: 325 fold
- Fold reduced (EC50, % Ki67), cyno donor 1 NK cells [1]: 729 fold
- EC50, % Ki67 expression, human CD8+ T cells [2]: 338 nM
- EC50, % Ki67 expression, human NK cells [2]: 29.2 nM
- Fold reduced (EC50, % Ki67), human CD8+ T cells [2]: 1840 fold
- Fold reduced (EC50, % Ki67), human NK cells [2]: 1390 fold

B4: W327151-TXU1.P1-V0002.uIgG1v805 (Fc fusion)
chain 1: B1 chain 1 with A8D, D9A
chain 2: B1 chain 2
- EC50, % Ki67 expression, human CD8+ T cells [2]: 174 nM
- EC50, % Ki67 expression, human NK cells [2]: 19.1 nM
- Fold reduced (EC50, % Ki67), human CD8+ T cells [2]: 947 fold
- Fold reduced (EC50, % Ki67), human NK cells [2]: 911 fold

Continued, values first:

- EC50, % Ki67 expression, cyno donor 2 CD8+ T cells [1]: 2.59 nM
- EC50, % Ki67 expression, cyno donor 2 NK cells [1]: 1.04 nM
- Fold reduced (EC50, % Ki67), cyno donor 2 CD8+ T cells [1]: 153 fold
- Fold reduced (EC50, % Ki67), cyno donor 2 NK cells [1]: 130 fold
- EC50, % Ki67 expression, human CD8+ T cells [2]: 13.5 nM
- EC50, % Ki67 expression, human NK cells [2]: 1.58 nM
- Fold reduced (EC50, % Ki67), human CD8+ T cells [2]: 73.5 fold
- Fold reduced (EC50, % Ki67), human NK cells [2]: 75.1 fold
B2: W327151-TXU1.P1-V0006.uIgG1v805 (Fc fusion)
chain 1: NWVNVISDLKKIEDLIQSMHIDATLYTESDVHPSCKVTAMKCFLLELQVISLESGDASIHDTVENALIILANNSLSSNGNVTESGCKECEELEEKNIKEFLQSFVHIVQMFINTSGGGGSEPKSSDKTHTCPPCPAPELLRGPSVFLFPPKPKDTLYITREPEVTCVVVDVSHEDPEVKFNWYVDGVEVHNAKTKPREEQYNSTYRVVSVLTVLHQDWLNGKEYKCKVSNKARPAPIEKTISKAKGQPREPQVYTLPPCREEMTKNQVSLWCLVKGFYPSDIAVEWESNGQPENNYKTTPPVLDSDGSFFLYSKLTVDKSRWQQGNVFSCSVMHEALHNHYTQKSLSLSPG
chain 2: B1 chain 2

- EC50, % Ki67 expression, cyno donor 1 CD8+ T cells [1]: 3.37 nM
- EC50, % Ki67 expression, cyno donor 1 NK cells [1]: 10.3 nM
- Fold reduced (EC50, % Ki67), cyno donor 1 CD8+ T cells [1]: 37 fold
- Fold reduced (EC50, % Ki67), cyno donor 1 NK cells [1]: 115 fold
- EC50, % Ki67 expression, human CD8+ T cells [2]: 22.5 nM
- EC50, % Ki67 expression, human NK cells [2]: 6.72 nM
- Fold reduced (EC50, % Ki67), human CD8+ T cells [2]: 122 fold
- Fold reduced (EC50, % Ki67), human NK cells [2]: 320 fold
B3: W327151-TXU1.P1-V0004.uIgG1v805 (Fc fusion)
chain 1: B1 chain 1 with A8D, D9L, L10K, K11A
chain 2: B1 chain 2

- EC50, % Ki67 expression, cyno donor 2 CD8+ T cells [1]: 100 nM
- EC50, % Ki67 expression, cyno donor 2 NK cells [1]: 26.3 nM
- Fold reduced (EC50, % Ki67), cyno donor 2 CD8+ T cells [1]: 5890 fold
- Fold reduced (EC50, % Ki67), cyno donor 2 NK cells [1]: 3290 fold
- EC50, % Ki67 expression, human CD8+ T cells [2]: 352 nM
- EC50, % Ki67 expression, human NK cells [2]: 106 nM
- Fold reduced (EC50, % Ki67), human CD8+ T cells [2]: 1910 fold
- Fold reduced (EC50, % Ki67), human NK cells [2]: 5030 fold
B5: W327151-TXU1.P1-V0005.uIgG1v805 (Fc fusion)
chain 1: B2 chain 1 with N65A, A66N
chain 2: B1 chain 2
